{
  "source": "patent US20240200085A1",
  "about": "(AARHUS UNIVERSITET, published 2024)",
  "binders": {"B1": {"name": "VHHLaG16m-tagged mCherry (mCherry_20linker_mutNbsfGFP-HA) (VHH)", "VHH": "QVQLVESGGRLVQAGDSLRLSCAASGRTWSTSAMAWFRQAPGREREFVAAITWWVGNTILGDSVKGRFTISRDRAKNTVDLQMDNLEPEDTAVYYCSARSRWYVLSVLRSVDSYDYWGQGTQVTVSS", "notes": "Construct EC32015, expressed in N. benthamiana leaves; LaG16 was engineered to carry three bulky tryptophan residues in the paratope; also called mCherry mutNb; mutated LaG16; not shown: mCherry red fluorescent protein (engineered); 20-residue linker ('20linker'); HA tag"}},
  "target": "T1, GFP-tagged NFR5 (LjNFR5-sfGFP) (Lotus japonicus)",
  "T1 construct": "Full-length receptor with C-terminal sfGFP; In the co-IP it was expressed from pLjUbi in N. benthamiana leaves and extracted with detergent; In nodulation assays it was expressed from the native Nfr5 promoter in roots; also called NFR5-GFP",
  "T1 sequence (chain, as listed by the source limits assumed)": "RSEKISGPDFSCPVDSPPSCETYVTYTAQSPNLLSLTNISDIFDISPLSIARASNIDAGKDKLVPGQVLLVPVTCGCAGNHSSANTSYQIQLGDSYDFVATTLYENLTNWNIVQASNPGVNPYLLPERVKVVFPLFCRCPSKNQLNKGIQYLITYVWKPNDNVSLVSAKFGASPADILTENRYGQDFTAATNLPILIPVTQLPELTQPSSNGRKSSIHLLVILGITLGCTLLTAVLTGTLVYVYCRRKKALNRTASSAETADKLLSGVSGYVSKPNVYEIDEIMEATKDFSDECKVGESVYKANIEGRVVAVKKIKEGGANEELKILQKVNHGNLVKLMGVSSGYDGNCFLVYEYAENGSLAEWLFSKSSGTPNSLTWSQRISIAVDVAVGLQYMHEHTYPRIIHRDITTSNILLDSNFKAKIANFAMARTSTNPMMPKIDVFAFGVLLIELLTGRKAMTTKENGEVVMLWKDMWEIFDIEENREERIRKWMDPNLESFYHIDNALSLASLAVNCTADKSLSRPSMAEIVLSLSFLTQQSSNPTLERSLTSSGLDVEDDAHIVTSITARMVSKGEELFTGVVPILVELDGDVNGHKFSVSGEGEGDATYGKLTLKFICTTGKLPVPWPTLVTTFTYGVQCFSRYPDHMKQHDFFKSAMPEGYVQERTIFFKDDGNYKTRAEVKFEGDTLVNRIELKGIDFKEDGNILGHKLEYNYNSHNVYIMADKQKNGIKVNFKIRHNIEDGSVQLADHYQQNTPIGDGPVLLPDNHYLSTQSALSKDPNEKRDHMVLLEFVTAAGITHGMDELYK",
  "experiment": "co-immunoprecipitation (RFP-Trap) from N. benthamiana leaf extracts, anti-GFP and anti-mCherry immunoblot (FIG. 1J)",
  "method": "The assay was performed as in Arora et al. (The Plant Cell 34, 7, 2806 (2022)). In short, N. benthamiana leaves were crushed to a powder in liquid nitrogen using a mortar and pestle, then incubated for 1 hour at 4° C. on a rotor in buffer containing 50 mM Tris-HCl (pH 7.5), 150 mM NaCl, 10% (v/v) glycerol, 2 mM EDTA, 5 mM DTT, 1 mM phenylmethylsulfonyl fluoride, Protease Inhibitor Cocktail (Sigma-Aldrich), and 1% (v/v) IGEPAL® CA-630 (Alfa Aesar) in a ratio of 2 mL/g tissue. Extracts were centrifuged at 4° C. and 4700 rpm for 30 minutes. Supernatants were directly incubated with RFP-Trap® Magnetic Agarose beads (ChromoTek®) overnight at 4° C. The beads were washed five times in buffer containing 50 mM Tris-HCl (pH 7.5), 150 mM NaCl, 10% (v/v) glycerol, 2 mM EDTA, Protease Inhibitor Cocktail (Sigma-Aldrich), and 0.5% (v/v) IGEPAL® CA-630 (Alfa Aesar) on ice. To release the proteins, 50 μL of SDS sample buffer (25 mM Tris-HCl, pH 6.8, 10% glycerol, 2% SDS, 0.2% 2-mercaptoethanol, 0.6 mg/mL Bromophenol blue) was added and samples were heated for 5 minutes at 95° C.\nProteins were separated on 12% SDS-polyacrylamide gels at 120 V for 3 h. Blotting to PVDF membranes (Merck) was done by wet transfer for 2 hours at 90 V. Membranes were blocked with 5% milk for 1 hour. […] Chemiluminescence was detected on a G-BOX (Syngene) using ECL Prime Western Blotting Detection Reagent (Cytiva).",
  "data": [
    {"binder": "B1", "values": [
      {"measurement": "binding result", "value": "no binding"}
    ]}
  ]
}
